Results on 2 substances are retold here after patent publication US7105647.

For assay [1], the target named is AH receptor nuclear translocator (ARNT), full length (human) (UniProt P27540). Nature of the assay: yeast two-hybrid, lacZ reporter (FIG. 3).
The target is the same in assay [2]. The experiment in a line: yeast two-hybrid, Galacto-Light lacZ assay, 1 µM βNF.
The target is the same in assay [3]. Nature of the assay: yeast two-hybrid, Galacto-Light lacZ assay, with vs without 1 µM βNF.
In assay [4] the target is MOP4 (human) (UniProt Q99743). Nature of the assay: cell-based or functional assay.
In assay [5] the target is MOP2 (human) (UniProt Q99814). The experiment in a line: cell-based or functional assay.
For assay [6], the target named is Human CLOCK, full length (human) (UniProt O15516). Nature of the assay: cell-based or functional assay.
In assay [7] the target is MOP1/HIF1α (human) (UniProt Q16665). Nature of the assay: cell-based or functional assay.
MOP1/HIF1α (human), sequence (Q16665 whole entry): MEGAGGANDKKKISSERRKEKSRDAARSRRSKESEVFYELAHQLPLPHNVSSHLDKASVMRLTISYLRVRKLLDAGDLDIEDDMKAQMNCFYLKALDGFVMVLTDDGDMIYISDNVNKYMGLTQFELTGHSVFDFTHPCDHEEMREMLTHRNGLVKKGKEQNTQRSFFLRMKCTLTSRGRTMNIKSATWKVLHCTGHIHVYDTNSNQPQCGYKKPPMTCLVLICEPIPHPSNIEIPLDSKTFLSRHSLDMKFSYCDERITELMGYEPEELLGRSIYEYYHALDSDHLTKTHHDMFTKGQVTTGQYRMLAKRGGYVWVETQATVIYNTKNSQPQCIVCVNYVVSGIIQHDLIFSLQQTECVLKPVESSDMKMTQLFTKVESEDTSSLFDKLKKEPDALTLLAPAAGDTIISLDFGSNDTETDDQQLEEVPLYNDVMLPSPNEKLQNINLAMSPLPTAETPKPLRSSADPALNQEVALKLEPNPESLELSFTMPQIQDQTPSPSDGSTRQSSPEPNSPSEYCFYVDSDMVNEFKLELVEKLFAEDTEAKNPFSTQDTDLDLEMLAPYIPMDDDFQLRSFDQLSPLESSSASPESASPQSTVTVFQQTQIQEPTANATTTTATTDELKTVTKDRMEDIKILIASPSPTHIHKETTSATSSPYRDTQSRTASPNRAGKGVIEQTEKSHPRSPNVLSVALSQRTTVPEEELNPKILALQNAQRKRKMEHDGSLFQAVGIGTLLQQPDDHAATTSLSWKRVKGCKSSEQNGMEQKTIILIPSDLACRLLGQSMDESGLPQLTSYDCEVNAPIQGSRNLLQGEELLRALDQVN

AH receptor nuclear translocator (ARNT), full length (human), sequence (P27540 whole entry): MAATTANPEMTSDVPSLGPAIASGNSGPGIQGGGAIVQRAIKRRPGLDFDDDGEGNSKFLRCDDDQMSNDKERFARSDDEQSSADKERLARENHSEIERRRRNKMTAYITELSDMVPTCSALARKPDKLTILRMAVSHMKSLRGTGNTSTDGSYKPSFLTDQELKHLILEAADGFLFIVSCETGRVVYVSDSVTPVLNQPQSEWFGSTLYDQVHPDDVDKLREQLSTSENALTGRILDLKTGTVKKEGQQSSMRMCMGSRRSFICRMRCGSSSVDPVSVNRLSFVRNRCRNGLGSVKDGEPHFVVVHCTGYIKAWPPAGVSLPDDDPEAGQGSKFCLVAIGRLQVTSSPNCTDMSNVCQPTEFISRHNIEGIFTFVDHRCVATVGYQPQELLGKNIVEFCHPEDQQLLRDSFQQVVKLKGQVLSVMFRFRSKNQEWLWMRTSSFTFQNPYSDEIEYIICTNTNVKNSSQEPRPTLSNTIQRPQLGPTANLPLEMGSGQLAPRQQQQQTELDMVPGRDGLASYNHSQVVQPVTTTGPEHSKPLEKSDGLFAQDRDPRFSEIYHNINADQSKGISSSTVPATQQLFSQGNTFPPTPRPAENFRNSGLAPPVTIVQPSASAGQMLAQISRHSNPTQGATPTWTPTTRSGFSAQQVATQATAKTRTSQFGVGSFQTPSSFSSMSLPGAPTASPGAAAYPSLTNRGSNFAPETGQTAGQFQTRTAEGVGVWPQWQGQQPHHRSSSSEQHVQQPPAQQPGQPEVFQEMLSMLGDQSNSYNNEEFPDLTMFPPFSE
MOP2 (human), sequence (Q99814 other isoform, or with tags, fused parts or gaps limits assumed): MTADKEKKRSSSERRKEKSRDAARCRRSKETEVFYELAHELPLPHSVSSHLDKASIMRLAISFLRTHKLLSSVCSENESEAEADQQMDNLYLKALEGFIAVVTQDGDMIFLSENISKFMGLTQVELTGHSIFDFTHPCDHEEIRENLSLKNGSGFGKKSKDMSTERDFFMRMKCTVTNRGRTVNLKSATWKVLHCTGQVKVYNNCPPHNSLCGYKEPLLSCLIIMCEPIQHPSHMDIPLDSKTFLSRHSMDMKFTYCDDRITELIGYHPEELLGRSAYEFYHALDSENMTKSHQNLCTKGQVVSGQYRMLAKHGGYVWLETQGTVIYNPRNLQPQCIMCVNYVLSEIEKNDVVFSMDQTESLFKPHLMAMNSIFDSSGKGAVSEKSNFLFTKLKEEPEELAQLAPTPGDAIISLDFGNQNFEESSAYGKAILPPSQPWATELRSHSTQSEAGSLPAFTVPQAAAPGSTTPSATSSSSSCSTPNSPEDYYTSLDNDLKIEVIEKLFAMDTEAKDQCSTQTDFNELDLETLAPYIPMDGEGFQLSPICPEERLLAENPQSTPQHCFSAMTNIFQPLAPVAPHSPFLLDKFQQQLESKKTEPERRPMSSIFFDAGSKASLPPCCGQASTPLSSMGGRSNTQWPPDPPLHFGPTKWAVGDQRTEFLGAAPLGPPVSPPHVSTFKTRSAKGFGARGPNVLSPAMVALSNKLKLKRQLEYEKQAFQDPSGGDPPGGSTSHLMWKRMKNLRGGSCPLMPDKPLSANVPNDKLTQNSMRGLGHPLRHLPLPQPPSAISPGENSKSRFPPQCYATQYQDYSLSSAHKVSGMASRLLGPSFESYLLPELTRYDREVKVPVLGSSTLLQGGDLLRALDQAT
Human CLOCK, full length (human), sequence (O15516 whole entry): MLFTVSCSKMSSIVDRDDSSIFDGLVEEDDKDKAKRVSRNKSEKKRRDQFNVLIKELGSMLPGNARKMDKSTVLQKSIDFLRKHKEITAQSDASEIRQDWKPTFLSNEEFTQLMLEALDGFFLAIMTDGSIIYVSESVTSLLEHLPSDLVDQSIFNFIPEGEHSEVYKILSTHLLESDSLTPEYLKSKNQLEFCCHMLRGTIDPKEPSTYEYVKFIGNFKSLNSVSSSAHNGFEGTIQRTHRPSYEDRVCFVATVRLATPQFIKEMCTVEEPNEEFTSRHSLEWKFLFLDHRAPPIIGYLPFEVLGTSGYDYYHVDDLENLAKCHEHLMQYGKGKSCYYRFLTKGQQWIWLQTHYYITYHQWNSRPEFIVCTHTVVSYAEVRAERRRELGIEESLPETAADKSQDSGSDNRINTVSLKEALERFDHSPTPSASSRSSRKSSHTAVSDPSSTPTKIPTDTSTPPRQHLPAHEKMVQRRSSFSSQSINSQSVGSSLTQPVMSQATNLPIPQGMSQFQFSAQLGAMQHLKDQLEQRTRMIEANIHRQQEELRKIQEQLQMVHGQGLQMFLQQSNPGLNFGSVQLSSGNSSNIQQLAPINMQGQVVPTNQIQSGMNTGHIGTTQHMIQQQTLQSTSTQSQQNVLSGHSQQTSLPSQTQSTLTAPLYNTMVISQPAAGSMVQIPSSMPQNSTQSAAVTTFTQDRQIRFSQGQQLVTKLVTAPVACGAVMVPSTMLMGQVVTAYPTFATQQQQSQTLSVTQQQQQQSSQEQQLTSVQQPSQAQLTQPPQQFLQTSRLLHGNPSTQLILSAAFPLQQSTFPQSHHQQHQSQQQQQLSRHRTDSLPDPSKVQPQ
MOP4 (human), sequence (Q99743 other isoform, or with tags, fused parts or gaps limits assumed): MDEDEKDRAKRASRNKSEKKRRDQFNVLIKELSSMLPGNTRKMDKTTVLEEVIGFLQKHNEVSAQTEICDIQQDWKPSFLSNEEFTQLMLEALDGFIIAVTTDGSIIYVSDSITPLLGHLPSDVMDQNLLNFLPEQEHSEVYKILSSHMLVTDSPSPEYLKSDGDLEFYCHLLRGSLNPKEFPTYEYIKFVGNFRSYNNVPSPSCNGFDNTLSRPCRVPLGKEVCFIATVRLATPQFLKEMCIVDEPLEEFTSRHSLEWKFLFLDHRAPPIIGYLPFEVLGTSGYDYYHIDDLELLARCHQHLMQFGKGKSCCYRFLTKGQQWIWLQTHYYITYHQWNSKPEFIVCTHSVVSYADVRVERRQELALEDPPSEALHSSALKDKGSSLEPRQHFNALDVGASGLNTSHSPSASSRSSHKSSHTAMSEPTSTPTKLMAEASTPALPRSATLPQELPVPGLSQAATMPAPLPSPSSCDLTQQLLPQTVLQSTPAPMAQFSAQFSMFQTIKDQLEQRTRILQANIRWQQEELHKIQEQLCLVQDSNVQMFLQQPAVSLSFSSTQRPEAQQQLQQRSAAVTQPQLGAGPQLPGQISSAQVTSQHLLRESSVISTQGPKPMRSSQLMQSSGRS

As to “LexAAHR (from UniProt P0A7C2 1-202; P30561 1-805)”, in assay [1], the fold relative to the LexAARNT-AHR interaction stood at 14.7 times. The fold above background (lacZ reporter activity) in assay [2] is 913 fold. In assay [3], this substance yielded a fold over the same pair in the absence of ligand of 6.4 fold.

Consider “full-length MOP3 (cDNA form identified by the yeast interaction trap)”, for which the luciferase reporter with three copies of the M34 element, COS-1 cells was 3.3 fold in assay [4] and 5.6 fold in assay [6]. The luciferase reporter with six copies of the M13 element, COS-1 cells in assay [5] is 3.6 fold; in assay [7] it was 3.3 fold.
